In US20190389961A1 (INNATE PHARMA, published 2019):

Columns and labels:
[1] = biological target: T1, recombinant human CD39-L3 (NTPDase3, ENTPD3) (human, UniProt O75355 44-485, limits assumed); assay: ELISA on plate-coated recombinant huCD39 L3; the single curve has no legend on the sheet, I-394 by the legend paragraph 70
T1 construct: Genbank NP_001239 is printed
T1 sequence: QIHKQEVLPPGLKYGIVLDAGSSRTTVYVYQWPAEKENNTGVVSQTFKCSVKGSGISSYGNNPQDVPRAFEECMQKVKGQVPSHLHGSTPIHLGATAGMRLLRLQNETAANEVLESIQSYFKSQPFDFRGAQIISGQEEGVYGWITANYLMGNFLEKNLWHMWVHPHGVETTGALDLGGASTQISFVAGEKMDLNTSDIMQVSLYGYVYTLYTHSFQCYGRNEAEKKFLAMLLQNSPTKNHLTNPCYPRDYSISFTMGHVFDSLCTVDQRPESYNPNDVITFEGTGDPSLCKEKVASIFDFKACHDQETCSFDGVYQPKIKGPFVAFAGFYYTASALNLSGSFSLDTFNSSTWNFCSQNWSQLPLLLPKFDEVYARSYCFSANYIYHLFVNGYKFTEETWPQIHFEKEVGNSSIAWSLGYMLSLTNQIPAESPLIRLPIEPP
Procedure: (§1) Wells were washed in TBS Tween 20, and further saturated 2H at RT in TBS Blocking buffer. Dose range concentration of primary antibody was incubated in TBS blocking buffer for 2 h at RT. Wells were washed in TBS Tween 20. […] Optical density was measured on Enspire™ at OD=450.

[2] = biological target: T2, murine CD39 expressed on CHO cells (murine, UniProt P55772 1-510); assay: flow cytometry titration on CHO-moCD39 cells
T2 construct: whole, on cells; also called CHO-moCD39; moCD39
T2 sequence (looked up): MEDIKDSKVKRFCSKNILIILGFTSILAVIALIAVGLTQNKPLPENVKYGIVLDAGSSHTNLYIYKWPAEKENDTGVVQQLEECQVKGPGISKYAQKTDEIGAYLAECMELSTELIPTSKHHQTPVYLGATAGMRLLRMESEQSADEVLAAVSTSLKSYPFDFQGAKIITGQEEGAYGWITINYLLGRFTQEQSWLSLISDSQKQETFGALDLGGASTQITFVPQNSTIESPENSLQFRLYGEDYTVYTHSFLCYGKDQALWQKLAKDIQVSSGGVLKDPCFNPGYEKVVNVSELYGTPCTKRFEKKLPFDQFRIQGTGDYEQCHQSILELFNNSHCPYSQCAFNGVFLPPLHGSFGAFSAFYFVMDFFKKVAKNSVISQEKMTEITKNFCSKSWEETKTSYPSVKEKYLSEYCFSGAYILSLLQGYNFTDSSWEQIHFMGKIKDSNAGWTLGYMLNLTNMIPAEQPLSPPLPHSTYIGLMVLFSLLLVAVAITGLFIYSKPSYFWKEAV
Procedure: (§2) Cells were incubated with various concentration of unlabeled anti-CD39 antibody from 30 μg/ml to 5×10-⁴ μg/ml, for 30 minutes at 4° C. After washes, cells were incubated with Goat anti-mouse H+L labeled secondary antibody for 30 min at 4° C.

[3] = biological target: T3, cynomolgus (Macaca fascicularis) CD39 expressed on CHO cells (cynomolgus (Macaca fascicularis), UniProt A0A7N9DGH8 1-510); assay: flow cytometry titration on CHO-cyCD39 cells
T3 construct: whole, on cells; also called CHO-cyCD39; cyCD39
T3 sequence: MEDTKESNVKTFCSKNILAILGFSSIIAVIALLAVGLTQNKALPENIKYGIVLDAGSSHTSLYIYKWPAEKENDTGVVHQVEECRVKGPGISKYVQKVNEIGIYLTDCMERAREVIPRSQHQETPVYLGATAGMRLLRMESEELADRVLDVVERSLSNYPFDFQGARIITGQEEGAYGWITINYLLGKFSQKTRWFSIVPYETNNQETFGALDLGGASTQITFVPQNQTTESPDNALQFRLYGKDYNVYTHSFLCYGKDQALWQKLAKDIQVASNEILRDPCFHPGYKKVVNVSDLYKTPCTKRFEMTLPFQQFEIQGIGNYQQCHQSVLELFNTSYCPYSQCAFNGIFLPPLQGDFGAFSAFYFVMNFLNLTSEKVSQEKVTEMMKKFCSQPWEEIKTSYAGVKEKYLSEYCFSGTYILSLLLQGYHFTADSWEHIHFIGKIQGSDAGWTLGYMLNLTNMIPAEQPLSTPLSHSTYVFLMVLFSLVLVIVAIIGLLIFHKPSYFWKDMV
Procedure: as §2

[4] = biological target: T4, recombinant human CD39-L2 (NTPDase6, ENTPD6) (human, UniProt O75354 61-484, limits assumed); assay: ELISA on plate-coated recombinant huCD39 L2; the single curve has no legend on the sheet, I-394 by the legend paragraph 70
T4 construct: Genbank NP_001238 is printed
T4 sequence: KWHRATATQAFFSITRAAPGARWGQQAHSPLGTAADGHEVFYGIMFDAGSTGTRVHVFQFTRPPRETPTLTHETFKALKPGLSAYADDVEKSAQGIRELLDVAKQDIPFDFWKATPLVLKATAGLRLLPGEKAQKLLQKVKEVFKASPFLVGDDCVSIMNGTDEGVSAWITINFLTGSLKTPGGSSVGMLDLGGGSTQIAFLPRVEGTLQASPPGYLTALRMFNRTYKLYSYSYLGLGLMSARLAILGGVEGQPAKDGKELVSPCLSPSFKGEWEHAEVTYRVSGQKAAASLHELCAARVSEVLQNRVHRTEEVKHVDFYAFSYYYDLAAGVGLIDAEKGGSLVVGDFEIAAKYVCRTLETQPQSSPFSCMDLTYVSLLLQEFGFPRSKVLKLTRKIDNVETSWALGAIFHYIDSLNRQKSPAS
Procedure: as §1

B1: antibody I-394 (antibody, V domains shown)
VH: EVQLQQSGPELVKPGASVKMSCKASGYTFTDYNMHWVKQSHGRTLEWIGYIVPLNGGSTFNQKFKGRATLTVNTSSRTAYMELRSLTSEDSAAYYCARGGTRFAYWGQGTLVTVSA
VL: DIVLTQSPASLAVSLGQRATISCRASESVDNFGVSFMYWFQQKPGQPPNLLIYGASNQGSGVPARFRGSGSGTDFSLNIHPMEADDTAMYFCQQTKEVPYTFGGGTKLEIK
notes: Mouse variable regions; Produced in CHO with human IgG1 constant domains carrying L234A/L235E/G237A/A330S/P331S (Kabat EU numbering) and a human Ck constant domain
Question: Does B1 bind [1]?
Answer: no binding (tested: about 50 µg/ml)

Question: Does B1 bind [2]?
Answer: no binding (tested: 30 µg/ml)

Question: What about the “EC50 (read off the curve)” value [3] of the same binder?
Answer: ~0.4 mg/L

Question: Does B1 bind [4]?
Answer: no binding (tested: about 50 µg/ml)
